Tests used:
O[C@H]1CCCc2ccccc21 = assay: steady-state kinetics of oxidation, A340; assay type: biochemical, Streptomyces griseoruber; conditions: NADP+
hedKR [1] = biological target: T1, hedKR (Streptomyces griseoruber, UniProt Q67G28); assay: […] Å co-crystal structure; assay type: binding
hedKR [2] = biological target: T1, hedKR; assay: steady-state kinetics of reduction; assay type: biochemical
hedKR [3] = biological target: T1, hedKR; assay: steady-state inhibition kinetics of trans-1-decalone reduction; assay type: biochemical

| Compound | Km (O[C@H]1CCCc2ccccc21) | kcat (O[C@H]1CCCc2ccccc21) | kcat/Km (O[C@H]1CCCc2ccccc21) | further results |
| --- | --- | --- | --- | --- |
| hedKR (Streptomyces griseoruber; N92L) | 4320 ± 521 µM | 0.169 ± 0.00653 s⁻¹ | 39.1 ± 4.96 M⁻¹ s⁻¹ |  |
| NC(=O)C1=CN([C@@H]2O[C@H](COP(=O)(O)OP(=O)(O)OC[C@H]3O[C@@H](n4cnc5c(N)ncnc54)[C@H](OP(=O)(O)O)[C@@H]3O)[C@@H](O)[C@H]2O)C=CC1 [NADPH] |  |  |  | 2.4 Å co-crystal structure (hedKR [1]): There is clear electron density for NADPH in each monomer of the crystal structure. |
| hedKR (Streptomyces griseoruber; N92P) | 14100 ± 1360 µM | 0.0323 ± 0.00166 s⁻¹ | 2.29 ± 0.249 M⁻¹ s⁻¹ |  |
| O=C1CCC[C@H]2CCCC[C@H]12 (relative stereo) [trans-1-decalone] |  |  |  | Km (hedKR [2]): 591 ± 147 µM |
| O=c1c(O)c(-c2ccc(O)c(O)c2)oc2cc(O)cc(O)c12 [compound 22, quercetin] |  |  |  | Ki (hedKR [3]): ~114 µM |
